Among the data in article PMC12747170 are Kd values, retold here.

For this experiment, the target named is JEV-ED3 protein (domain III of the Japanese encephalitis virus envelope protein, aa 303-398, C-terminal His-tag) (Japanese encephalitis virus). Description: BLI. (BLI is a label-free optical method that tracks binding on a fibre tip over time.)

The Kd is the constant that tells how readily two partners part at equilibrium. Lower therefore signals tighter binding. “recombinant Human EGFR Protein (ECD, hFc Tag) (from UniProt P00533 25-645) (Fc fusion)” had a dissociation constant (Kd) of 283 nM.
